Results as given in patent US20250084169A1 (published 2025).
Like-named read-outs stand apart in the source and are kept apart here.

Key:
[1] = target: T1, recombinant human Fc gamma RIIIa (CD16a) 158F (human, UniProt P08637 17-208)
[2] = target: T2, recombinant human Fc gamma RIIIa (CD16a) 158V (human, UniProt P08637 17-208)
[3] = target: T3, recombinant human Fc gamma RIIIb (CD16b) (human, UniProt O75015 17-200)
[4] = target: T4, recombinant human Fc gamma RIIb/c (CD32b/c) (human, UniProt P31994 46-217)
T4 sequence (looked up): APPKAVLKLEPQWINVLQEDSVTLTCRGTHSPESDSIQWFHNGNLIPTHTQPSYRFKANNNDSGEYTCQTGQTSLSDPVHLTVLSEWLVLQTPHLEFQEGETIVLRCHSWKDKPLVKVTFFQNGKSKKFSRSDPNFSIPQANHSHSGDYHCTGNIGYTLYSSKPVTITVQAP

[5] = target: T5, recombinant human Fc gamma RIIa (CD32a) 131R (human, UniProt P12318 36-218)
T5 sequence (looked up): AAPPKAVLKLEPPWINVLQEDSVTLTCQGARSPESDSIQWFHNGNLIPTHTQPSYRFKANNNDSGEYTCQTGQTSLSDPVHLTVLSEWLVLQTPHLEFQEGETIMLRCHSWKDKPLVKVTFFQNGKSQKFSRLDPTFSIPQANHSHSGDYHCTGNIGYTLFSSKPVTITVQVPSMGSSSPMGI

[6] = target: T6, recombinant human Fc gamma RI (CD64) (human, UniProt P12314 16-288)
[7] = target: T4, recombinant human Fc gamma RIIb/c …; remark: listed apart in the source
[8] = target: T1, recombinant human Fc gamma RIIIa …; remark: listed apart in the source
[9] = target: T5, recombinant human Fc gamma RIIa (CD32a) …; remark: listed apart in the source
[10] = target: T6, recombinant human Fc gamma RI (CD64); remark: listed apart in the source
[11] = target: T2, recombinant human Fc gamma RIIIa …; remark: listed apart in the source
[12] = target: T7, recombinant human Fc gamma RIIa (CD32a) 131H (human, UniProt P12318 36-218)
T7 sequence (looked up): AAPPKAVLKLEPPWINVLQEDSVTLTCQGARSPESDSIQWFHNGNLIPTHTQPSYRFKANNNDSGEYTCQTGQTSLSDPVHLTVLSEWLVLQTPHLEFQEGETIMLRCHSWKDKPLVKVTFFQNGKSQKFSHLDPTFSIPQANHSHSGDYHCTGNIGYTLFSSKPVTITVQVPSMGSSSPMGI

[13] = target: T3, recombinant human Fc gamma RIIIb (CD16b); remark: listed apart in the source
CD20 Lipoparticles = target: T8, CD20 Lipoparticles (Homo sapiens (Human), UniProt P11836 1-297)
T8 sequence: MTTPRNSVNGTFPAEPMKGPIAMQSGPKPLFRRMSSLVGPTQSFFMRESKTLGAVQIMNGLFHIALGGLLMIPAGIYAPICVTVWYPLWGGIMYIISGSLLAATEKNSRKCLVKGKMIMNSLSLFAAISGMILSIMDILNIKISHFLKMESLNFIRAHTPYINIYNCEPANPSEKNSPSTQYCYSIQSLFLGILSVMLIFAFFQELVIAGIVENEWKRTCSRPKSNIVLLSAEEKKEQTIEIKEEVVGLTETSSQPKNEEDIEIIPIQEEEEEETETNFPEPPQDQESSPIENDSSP

T6 sequence (P12314 16-288 limits assumed): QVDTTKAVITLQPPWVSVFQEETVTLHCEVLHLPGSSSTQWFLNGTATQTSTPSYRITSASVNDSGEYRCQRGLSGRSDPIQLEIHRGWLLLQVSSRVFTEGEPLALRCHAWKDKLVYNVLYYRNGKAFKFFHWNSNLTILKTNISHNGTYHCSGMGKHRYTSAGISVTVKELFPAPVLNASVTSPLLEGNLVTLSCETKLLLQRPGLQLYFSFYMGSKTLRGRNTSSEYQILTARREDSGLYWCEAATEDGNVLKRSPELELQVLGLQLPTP
T2 sequence (P08637 17-208 F176V limits assumed): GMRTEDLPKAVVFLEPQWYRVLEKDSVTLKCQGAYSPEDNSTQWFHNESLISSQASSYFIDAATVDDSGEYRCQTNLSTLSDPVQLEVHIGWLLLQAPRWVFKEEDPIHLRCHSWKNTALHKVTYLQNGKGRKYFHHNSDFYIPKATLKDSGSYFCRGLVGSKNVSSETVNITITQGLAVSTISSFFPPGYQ
T1 sequence (P08637 17-208 limits assumed): as the sequence (P08637 17-208 F176V limits assumed) above, with V160F counted along it
T3 sequence (O75015 17-200 limits assumed): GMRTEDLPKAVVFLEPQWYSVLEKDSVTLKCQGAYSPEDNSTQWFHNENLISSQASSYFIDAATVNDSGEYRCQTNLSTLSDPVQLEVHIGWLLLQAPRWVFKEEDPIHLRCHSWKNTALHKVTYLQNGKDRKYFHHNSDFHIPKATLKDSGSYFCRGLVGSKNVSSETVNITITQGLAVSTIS

B1: HB2174 (bispecific antibody, human IgG1, kappa)
heavy 1: QVQLVQSGGGVVQPGRSLRLSCAASGVSLPDYGVSWVRKAPGKGLEWVAVIWGSETTYYNSALKSRFTISRDNSKNTLYLQMSSLRAEDTAVYYCAKHYYYGGSFAMDYWGQGTLVTVSSASTKGPSVFPLAPSSKSTSGGTAALGCLVKDYFPEPVTVSWNSGALTSGVHTFPAVLQSSGLYSLESVVTVPSSSLGTQTYICNVNHKPSNTKVDKKVEPKSCTDWSPYADQSIKVRISLKSALGDKAYEWNDNEMYLFRSSVAYAMRQYFLKVKNQMILFGEEDVRVANLKPRISFNFFVTAPKNVSDIIPRTEVEKAIRMSRSRINDAFRLNDNSLEFLGIQPTLGPPNQPPVSTSTSPTRSMAPGAVHLPQPVSTRDKTHTCPPCPAPELLGGPSVFLFPPKPKDTLMISRTPEVTCVVVDVSHEDPEVKFNWYVDGVEVHNAKTKPREEQYNSTYRVVSVLTVLHQDWLNGKEYKCKVSNKALPAPIEKTISKAKGQPREPQVCTLPPSRDELTKNQVSLSCAVKGFYPSDIAVEWESNGQPENNYKTTPPVLDSDGSFFLVSKLTVDKSRWQQGNVFSCSVMHEALHNRFTQKSLSLSPG
heavy 2: not shown
light 1: DIQMTQSPSSLSASVGDRVTITCRASQDISKYLNWYQEKPGKAIKLLIYHTSRLHSGVPSRFSGSGSGTDFTLTISSLQPEDFATYYCQQGATLPYTFGPGTKLEIKRTVAAPSVFIFPPSDEQLKSGTASVKCLLNNFYPREAKVQWKVDNALQSGNSQESVTEQDSKDSTYSLSSTLTLSKADYEKHKVYACEVTHQGLSSPVTKSFNRGEC
light 2: QVQLQQPGAELVKPGASVKMSCKASGYTFTSYNMHWVKETPGRGLEWIGAIYPGNGDTSYNQKFKGKATLTADKSSSTAYMQLSSLTSEDSAVYYCARSTYYGGDWYFNVWGAGTLVTVSSASVAAPSVFIFPPSDEQLKSGTASVECLLNNFYPREAKVQWKVDNALQSGNSQESVTEQDSKDSTYSLSSTLTLSKADYEKHKVYACEVTHQGLSSPVTKSFNRGEC
[1]
  Kd: 2310 nM
[2]
  Kd: 497 nM
[3]
  Kd: 8910 nM
[4]
  Kd: 4480 nM
[5]
  Kd: 901 nM
[6]
  Kd: 0.118 nM

B2: Rituximab-S239D/I332E (antibody, human IgG1, kappa)
heavy: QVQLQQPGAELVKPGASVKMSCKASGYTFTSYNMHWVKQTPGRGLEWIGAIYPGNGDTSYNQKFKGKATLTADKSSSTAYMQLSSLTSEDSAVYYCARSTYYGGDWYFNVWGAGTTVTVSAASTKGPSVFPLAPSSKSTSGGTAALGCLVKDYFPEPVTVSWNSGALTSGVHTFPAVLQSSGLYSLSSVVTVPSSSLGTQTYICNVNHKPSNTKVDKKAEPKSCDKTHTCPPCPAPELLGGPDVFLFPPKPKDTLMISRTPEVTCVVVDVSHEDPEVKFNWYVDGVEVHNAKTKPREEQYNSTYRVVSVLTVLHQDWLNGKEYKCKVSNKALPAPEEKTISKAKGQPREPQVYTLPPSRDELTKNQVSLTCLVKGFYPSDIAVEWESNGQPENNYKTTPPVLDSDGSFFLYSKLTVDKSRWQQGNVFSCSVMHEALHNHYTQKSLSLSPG
light: QIVLSQSPAILSASPGEKVTMTCRASSSVSYIHWFQQKPGSSPKPWIYATSNLASGVPVRFSGSGSGTSYSLTISRVEAEDAATYYCQQWTSNPPTFGGGTKLEIKRTVAAPSVFIFPPSDEQLKSGTASVVCLLNNFYPREAKVQWKVDNALQSGNSQESVTEQDSKDSTYSLSSTLTLSKADYEKHKVYACEVTHQGLSSPVTKSFNRGEC
[1]
  Kd: 17.6 nM
[2]
  Kd: 4.33 nM
[3]
  Kd: 66.8 nM
[4]
  Kd: 138 nM
[5]
  Kd: 76.8 nM
[6]
  Kd: 0.0266 nM

B3: Rc66SIDE-P16-Rc66SIDE (antibody, human IgG1, kappa)
light: QIVLSQSPAILSASPGEKVTMTCRASSSVSYIHWFQQKPGSSPKPWIYATSNLASGVPVRFSGSGSGTSYSLTISRVEAEDAATYYCQQWTSNPPTFGGGTKLEIKRTVAAPSVFIFPPSDEQLKSGTASVVCLLNNFYPREAKVQWKVDNALQSGNSQESVTEQDSKDSTYSLSSTLTLSKADYEKHKVYACEVTHQGLSSPVTKSFNRGEC
heavy: QVQLQQPGAELVKPGASVKMSCKASGYTFTSYNMHWVKQTPGRGLEWIGAIYPGNGDTSYNQKFKGKATLTADKSSSTAYMQLSSLTSEDSAVYYCARSTYYGGDWYFNVWGAGTTVTVSAASTKGPSVFPLAPSSKSTSGGTAALGCLVKDYFPEPVTVSWNSGALTSGVHTFPAVLQSSGLYSLSSVVTVPSSSLGTQTYICNVNHKPSNTKVDKKAEPKSCDKTHTCPPCPAPELLGGPDVFLFPPKPKDTLMISRTPEVTCVVVDVSHEDPEVKFNWYVDGVEVHNAKTKPREEQYNSTYRVVSVLTVLHQDWLNGKEYKCKVSNKALPAPEEKTISKAKGQPREPQVYVLPPSRDELTKNQVSLLCLVKGFYPSDIAVEWESNGQPENNYLTWPPVLDSDGSFFLYSKLTVDKSRWQQGNVFSCSVMHEALHNHYTQKSLSLSPGK
chain: CPPCPAPELLGGPDVFLFPPKPKDTLMISRTPEVTCVVVDVSHEDPEVKFNWYVDGVEVHNAKTKPREEQYNSTYRVVSVLTVLHQDWLNGKEYKCKVSNKALPAPEEKTISKAKGQPREPQVYVYPPSRDELTKNQVSLTCLVKGFYPSDIAVEWESNGQPENNYKTTPPVLDSDGSFALVSKLTVDKSRWQQGNVFSCSVMHEALHNHYTQKSLSLSPGK
[7]
  Kd: 0.556 nM
[8]
  Kd: 2.71 nM
[9]
  Kd: 1.83 nM
[10]
  Kd: < 0.001 nM
[11]
  Kd: 0.257 nM
[12]
  Kd: 0.808 nM
[13]
  Kd: < 0.001 nM
CD20 Lipoparticles
  Kd: < 0.001 nM

B4: Rc66SIDE (antibody, human IgG1, kappa)
light: QIVLSQSPAILSASPGEKVTMTCRASSSVSYIHWFQQKPGSSPKPWIYATSNLASGVPVRFSGSGSGTSYSLTISRVEAEDAATYYCQQWTSNPPTFGGGTKLEIKRTVAAPSVFIFPPSDEQLKSGTASVVCLLNNFYPREAKVQWKVDNALQSGNSQESVTEQDSKDSTYSLSSTLTLSKADYEKHKVYACEVTHQGLSSPVTKSFNRGEC
heavy: QVQLQQPGAELVKPGASVKMSCKASGYTFTSYNMHWVKQTPGRGLEWIGAIYPGNGDTSYNQKFKGKATLTADKSSSTAYMQLSSLTSEDSAVYYCARSTYYGGDWYFNVWGAGTTVTVSAASTKGPSVFPLAPSSKSTSGGTAALGCLVKDYFPEPVTVSWNSGALTSGVHTFPAVLQSSGLYSLSSVVTVPSSSLGTQTYICNVNHKPSNTKVDKKAEPKSCDKTHTCPPCPAPELLGGPDVFLFPPKPKDTLMISRTPEVTCVVVDVSHEDPEVKFNWYVDGVEVHNAKTKPREEQYNSTYRVVSVLTVLHQDWLNGKEYKCKVSNKALPAPEEKTISKAKGQPREPQVYVLPPSRDELTKNQVSLLCLVKGFYPSDIAVEWESNGQPENNYLTWPPVLDSDGSFFLYSKLTVDKSRWQQGNVFSCSVMHEALHNHYTQKSLSLSPGK
chain: CPPCPAPELLGGPDVFLFPPKPKDTLMISRTPEVTCVVVDVSHEDPEVKFNWYVDGVEVHNAKTKPREEQYNSTYRVVSVLTVLHQDWLNGKEYKCKVSNKALPAPEEKTISKAKGQPREPQVYVYPPSRDELTKNQVSLTCLVKGFYPSDIAVEWESNGQPENNYKTTPPVLDSDGSFALVSKLTVDKSRWQQGNVFSCSVMHEALHNHYTQKSLSLSPGK
[7]
  Kd: 253 nM
[8]
  Kd: 76.8 nM
[9]
  Kd: 202 nM
[11]
  Kd: 46.2 nM
[12]
  Kd: 255 nM
[13]
  Kd: 163 nM
CD20 Lipoparticles
  Kd: 21.4 nM

B5: Rc66SIDE-P4-Rc66SIDE (antibody, human IgG1, kappa)
light: QIVLSQSPAILSASPGEKVTMTCRASSSVSYIHWFQQKPGSSPKPWIYATSNLASGVPVRFSGSGSGTSYSLTISRVEAEDAATYYCQQWTSNPPTFGGGTKLEIKRTVAAPSVFIFPPSDEQLKSGTASVVCLLNNFYPREAKVQWKVDNALQSGNSQESVTEQDSKDSTYSLSSTLTLSKADYEKHKVYACEVTHQGLSSPVTKSFNRGEC
heavy: QVQLQQPGAELVKPGASVKMSCKASGYTFTSYNMHWVKQTPGRGLEWIGAIYPGNGDTSYNQKFKGKATLTADKSSSTAYMQLSSLTSEDSAVYYCARSTYYGGDWYFNVWGAGTTVTVSAASTKGPSVFPLAPSSKSTSGGTAALGCLVKDYFPEPVTVSWNSGALTSGVHTFPAVLQSSGLYSLSSVVTVPSSSLGTQTYICNVNHKPSNTKVDKKAEPKSCDKTHTCPPCPAPELLGGPDVFLFPPKPKDTLMISRTPEVTCVVVDVSHEDPEVKFNWYVDGVEVHNAKTKPREEQYNSTYRVVSVLTVLHQDWLNGKEYKCKVSNKALPAPEEKTISKAKGQPREPQVYVLPPSRDELTKNQVSLLCLVKGFYPSDIAVEWESNGQPENNYLTWPPVLDSDGSFFLYSKLTVDKSRWQQGNVFSCSVMHEALHNHYTQKSLSLSPGK
chain: CPPCPAPELLGGPDVFLFPPKPKDTLMISRTPEVTCVVVDVSHEDPEVKFNWYVDGVEVHNAKTKPREEQYNSTYRVVSVLTVLHQDWLNGKEYKCKVSNKALPAPEEKTISKAKGQPREPQVYVYPPSRDELTKNQVSLTCLVKGFYPSDIAVEWESNGQPENNYKTTPPVLDSDGSFALVSKLTVDKSRWQQGNVFSCSVMHEALHNHYTQKSLSLSPGK
[7]
  Kd: 3.17 nM
[8]
  Kd: 3.87 nM
[9]
  Kd: 4.93 nM
[10]
  Kd: < 0.001 nM
[11]
  Kd: 1.14 nM
[12]
  Kd: 2.54 nM
[13]
  Kd: 1.05 nM
CD20 Lipoparticles
  Kd: < 0.001 nM
